# Measured values: patent US7393837B2, “Inhibition of PEX in the treatment of metabolic bone diseases” (McGill University, priority 1998, dated 2008)
# Tests used:
# recombinant human PEX = target: T1, recombinant human PEX (Homo sapiens, UniProt P78562); assay: Membrane-bound endopeptidase assay, hydrolysis by PEX-expressing COS cell membranes (HPLC); assay type: biochemical; settings: for hydrolysis of the peptide in the presence of PEX: 10 μg peptide, COS cell membranes expressing PEX, HPLC at 214 nm, FIG. 8
# T1 construct: excising the full length PEX cDNA that was then inserted into pcDNA3 vector; expressed in transfected cells; host or cells: COS-7 cells, transient transfection with pPEX (pcDNA3); 100,000 x g membrane fraction
# T1 sequence (P78562 1-749): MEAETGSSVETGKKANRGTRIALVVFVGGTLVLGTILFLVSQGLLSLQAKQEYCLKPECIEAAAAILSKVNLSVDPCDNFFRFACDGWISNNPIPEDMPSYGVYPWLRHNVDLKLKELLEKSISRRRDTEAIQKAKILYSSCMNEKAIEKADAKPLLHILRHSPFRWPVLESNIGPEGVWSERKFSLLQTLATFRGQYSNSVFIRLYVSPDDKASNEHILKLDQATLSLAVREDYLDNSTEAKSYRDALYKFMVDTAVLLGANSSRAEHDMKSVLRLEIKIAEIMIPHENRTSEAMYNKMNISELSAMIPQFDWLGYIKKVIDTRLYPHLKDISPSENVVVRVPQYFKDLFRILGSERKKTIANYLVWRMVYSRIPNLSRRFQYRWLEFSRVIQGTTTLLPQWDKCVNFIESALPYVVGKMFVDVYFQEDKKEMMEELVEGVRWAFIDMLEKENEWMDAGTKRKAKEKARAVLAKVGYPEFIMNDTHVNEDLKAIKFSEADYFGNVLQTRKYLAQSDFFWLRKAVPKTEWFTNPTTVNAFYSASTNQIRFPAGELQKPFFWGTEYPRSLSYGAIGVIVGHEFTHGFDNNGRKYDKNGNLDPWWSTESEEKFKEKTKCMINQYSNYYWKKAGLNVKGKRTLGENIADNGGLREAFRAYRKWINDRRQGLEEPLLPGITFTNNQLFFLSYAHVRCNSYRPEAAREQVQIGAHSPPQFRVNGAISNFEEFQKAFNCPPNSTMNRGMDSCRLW
# Description: (§1) COS-7 cells transiently transfected with pcDNA3 vector alone, with vector containing human NEP cDNA (generous gift of P. Crine, Université de Montréal), or with pPEX plasmid, were washed and scraped in PBS. Following brief centrifugation, the cell pellets were resuspended in 50 mM Tris-HCl, pH 7.4 and disrupted by sonication. Homogenates were fractionated by sequential centrifugation at 1,000×g for 10 min and then at 100,000×g for 60 min. The final precipitate was washed with 50 mM Tris-HCl, pH 7.4, resuspended in the same buffer, and assayed for endopeptidase activity. The protein concentration in membrane fractions was determined by the method of Bradford with bovine serum albumin as standard.
# [D-Ala^2,Leu^5] enkephalin (500 μM) was incubated with COS cell membrane preparations (˜60 μg of protein) in 100 mM Tris-HCl, pH 7.0, at 37° C. for 30 min (final volume 30 μl). The reaction was terminated by the addition of 100 μl 0.1% TFA (v/v). Production of Tyr-D-Ala-Gly was monitored using reversed-phase HPLC (Bondpak C-18 reverse phase column, Waters) with a U.V. detector set at 214 nm. A linear solvent gradient of 0% B to 40% B in 60 min was used with a flow rate of 1.5 ml/min (mobile phase A=0.1% TFA (v/v); mobile phase B=80% acetonitrile/0.1% TFA). Tyr-D-Ala-Gly was identified by co-chromatography with marker synthetic peptide. For assessing PEX endopeptidase activity, 10 μg of PTH [1-38] and PTH [1-34] peptides (Peninsula Laboratories; Belmont, Calif.) were added to the membrane preparations. For HPLC analysis of hydrolysis products, a linear solvent gradient of 0% to 50% solution B was used at a rate of 1.5 ml/min. MALDI-TOF mass spectrometry was performed on specific peptide fragments.
# recombinant human NEP = target: T2, recombinant human NEP (Homo sapiens, UniProt P08473); assay: Membrane-bound endopeptidase assay, hydrolysis by NEP-expressing COS cell membranes (HPLC); assay type: biochemical; settings: 500 μM substrate, 37° C., 30 min; FIG. 7B
# T2 construct: expressed in transfected cells; host or cells: COS-7 cells, transient transfection; 100,000 x g membrane fraction
# T2 sequence (P08473 whole entry): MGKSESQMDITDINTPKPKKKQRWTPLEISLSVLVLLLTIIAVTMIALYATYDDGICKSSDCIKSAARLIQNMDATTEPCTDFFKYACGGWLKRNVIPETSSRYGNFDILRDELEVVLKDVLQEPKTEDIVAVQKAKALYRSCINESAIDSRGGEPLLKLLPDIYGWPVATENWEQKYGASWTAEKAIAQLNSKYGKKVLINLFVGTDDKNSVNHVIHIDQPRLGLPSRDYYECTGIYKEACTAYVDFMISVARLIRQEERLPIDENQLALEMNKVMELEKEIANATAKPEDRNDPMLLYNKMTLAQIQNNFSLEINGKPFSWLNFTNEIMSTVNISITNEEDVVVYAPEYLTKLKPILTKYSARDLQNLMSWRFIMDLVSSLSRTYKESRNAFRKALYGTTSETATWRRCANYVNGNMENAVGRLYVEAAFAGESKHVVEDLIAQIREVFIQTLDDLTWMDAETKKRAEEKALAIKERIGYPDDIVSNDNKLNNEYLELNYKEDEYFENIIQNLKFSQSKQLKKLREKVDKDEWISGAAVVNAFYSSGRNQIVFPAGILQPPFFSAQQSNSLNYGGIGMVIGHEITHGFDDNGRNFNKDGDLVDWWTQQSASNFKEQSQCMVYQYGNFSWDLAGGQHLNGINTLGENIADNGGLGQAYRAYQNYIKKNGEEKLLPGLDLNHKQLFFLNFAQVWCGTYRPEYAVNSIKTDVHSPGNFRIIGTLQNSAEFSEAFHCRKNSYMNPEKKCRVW
# Description: as §1
# [D-Ala^2,Leu^5] enkephalin (500 μM) was incubated with COS cell membrane preparations (˜60 μg of protein) in 100 mM Tris-HCl, pH 7.0, at 37° C. for 30 min (final volume 30 μl). The reaction was terminated by the addition of 100 μl 0.1% TFA (v/v). Production of Tyr-D-Ala-Gly was monitored using reversed-phase HPLC (Bondpak C-18 reverse phase column, Waters) with a U.V. detector set at 214 nm. A linear solvent gradient of 0% B to 40% B in 60 min was used with a flow rate of 1.5 ml/min (mobile phase A=0.1% TFA (v/v); mobile phase B=80% acetonitrile/0.1% TFA). Tyr-D-Ala-Gly was identified by co-chromatography with marker synthetic peptide. […]
Substance,hydrolysis of the peptide in the presence of PEX (recombinant human PEX),"production of Tyr-D-Ala-Gly from the substrate, PEX membranes (recombinant human PEX; 500 μM substrate, 37° C., 30 min, FIG. 7C)","production of Tyr-D-Ala-Gly from the substrate, NEP membranes (recombinant human NEP)"
"PTH [1-34]: human parathyroid hormone peptide 1-34 (Peninsula Laboratories), used as PEX substrate",hydrolyzed,,
"PTH [1-38]: human parathyroid hormone peptide 1-38 (Peninsula Laboratories), used as PEX substrate (SVSEIQLMHNLGKHLNSMERVEWLRKKLQDVHNFVALG)",hydrolyzed,,
"[D-Ala^2, Leu^5] enkephalin",,evident only in NEP-expressing membrane preparations,evident only in NEP-expressing membrane preparations
